Reference: PMC10343505 (Molecules, 2023)
Where a SMILES comes first, the peptide text is derived from it. The star is where a group is joined. Galloyl = O=C(c1cc(O)c(O)c(O)c1)*

Tests used:
fresh human serum = details: 37 °C, up to 20 min
[1] = Water solubility of synthesized compounds; type: physicochemical; details: concentration of 1 mg/mL in pure water
Experimental: The Hecate N-terminal fragments found in the serum stability experiment were selected to conjugate with gallic acid, like that in the GA-Hecate structure, where GA is coupled at the N-terminal region. Bioconjugates were synthesized using solid-phase methods and, after purification, their purity and identities were determined by high-performance liquid chromatography and mass spectrometry, respectively (see Supplementary Information). GA-metabolite 6 was not water-soluble and therefore was not considered for further biological evaluation.

Vero cells [2] = assay: Cytotoxicity profile, WST-1 viability assay; type: cell-based, African green monkey; details: 72 h; for CC50 (50% cytotoxic concentration in VERO cells): WST-1, non-linear regression of dose-response curve; for maximum non-toxic concentration: arbitrary threshold of 80% cell viability, range 80-0.62 µM
Experimental: To understand the effect of GA-Hecate and N-terminal-GA-metabolites on host cells, we tested them at a range of concentrations (80–0.62 µM) on Vero cells. Considering the arbitrary threshold of 80% cell viability, GA-Hecate, and GA-metabolite 5 reached their maximum non-toxic concentration at 40 µM (Figure 2).
Figure 2 Compound effects on Vero cells. Vero cells were incubated with different concentrations of GA-peptides. At 72 h post treatment, cell viability was determined by WST viability assay and the values are plotted as those relative to the control. Bars represent triplicate samples of three independent assays. *** p < 0.001. Comparison control vs. concentration. Water, the GA-peptide vehicle, was used as a negative control. Red dotted lines represent the arbitrary threshold of 80% cell viability.
The cytotoxicity profile of GA-Hecate and GA-metabolites. Peptide cytotoxicity profiles were measured using the WST-1 (4-[3-(4-iodophenyl)-2-(4-nitrophenyl)-2H-5-tetrazolio]-3-benzene disulfonate) cell proliferation reagent. A total of 24 h before treatment, 7 × 10^3 Vero cells/well were cultured with supplemented DMEM in a 96-multi-well plate and incubated at 37 °C in a humidified 5% CO2 incubator. The next day, the peptide-containing medium was added at the following final concentrations: 80; 40; 20; 10; 5; 2.5; 1.25, and 0.625 µM. After 72 h of incubation, peptide medium was removed, and WST-1 at a dilution of 1:10 was added to the wells and incubated for 30 min. Absorbance was measured at 450 nm, using a plate reader spectrophotometer.

ZIKV strain MP1751 = assay: Virucidal assay, micro-neutralization; type: cell-based, Zika virus; details: virus pre-incubated 1 h, 72 hpi, Vero
Experimental: We next tested the virucidal effect of GA-Hecate and GA-metabolite 5 at concentrations of 20 µM and 40 µM on ZIKV strain MP1751 as described above. Again, we found a modest effect of GA-Hecate at 40 µM on ZIKV strain MP1751 replication. […] Given the latter result, the combination was not tested.
Sandwich ELISA to assess ZIKV infectivity (micro-neutralization). This assay was performed as described previously by Lopez-Chamaco et al., 2018. Briefly, at 72 h post-treatment (h.p.i.) the infected cell medium was removed, and cells were washed with PBS and then lysed with lysis buffer (20 mM Tris-HCl (pH 7.4), 20 mM iodoacetamide, 150 mM NaCl, 1 mM EDTA, and 0.5% Triton X-100) containing protease inhibitors. The lysis solution was transferred to an Immunolon® plate pre-coated with 3 µg/mL of purified pan-flavivirus MAb D1-4G2-4-15 (ATCC® HB112TM, herein referred to as 4G2) in PBS and incubated at room temperature for 1 h. […] After washing with PBST, 100 µL of TMB solution (Life Technologies) was added and the reaction stopped at 30 min with 50 µL of 0.5 M H2SO4 solution added and read at 450 nm using a plate reader spectrophotometer (ELISA).
Entry step assessment of GA-Hecate and GA-metabolites on Zika Virus. […] The levels of virus replication were determined using micro-neutralization as described above. […]

Vero cells [3] = assay: Cell toxicity during constant treatment (cell count, WST-1); type: cell-based, African green monkey; details: 20 µM for 3 and 7 days
Experimental: We next assessed the effect, if any, of our peptides on cell growth, which in turn could affect virus replication. Vero cells in culture flasks were propagated in the presence or absence of 20 µM each of GA-peptides for 3 and 7 days. At this time point, viable cells were counted following incubation with trypsin using the automated cell counter Scepter^TM (Millipore), and cell shape was monitored using phase-contrast microscopy. Then, 7 × 10^3 cells were seeded per well of a 96-well plate, incubated for 24 h, and cell viability was measured using the WST-1 viability reagent (Figure 9c,d). […] This was consistent with the lower cell viability found for GA-Hecate-treated cells (65% of the control, Figure 9c).
Figure 9 Effect of peptides on Vero. (a) Cells were treated with 20 µM each of the peptides and cell counts determined at 3 and 7 days (a) during or (b) after treatment, as described in the text. (c,d) depict the cell viability counts from (a,b), respectively, shown as plots. Bars represent triplicate samples of three independent assays. *** p < 0.001. […]
GA-Hecate and GA-metabolite cell toxicity during constant treatment. […] Absorbance was measured at 450 nm, using a plate reader spectrophotometer. […] Cell images were obtained using a confocal microscope and the number of cells/mL was automatically measured using the automated cell counter Scepter^TM (Millipore). […]

[4] = Serum stability, mass spectrometry; type: in vitro ADME; details: 100 µL of 1 mg/mL peptide + 100 µL fresh human serum, 37 °C, 20 min, ethanol precipitation, ESI mass spectrometry
Experimental: The GA-Hecate peptide has shown promising efficacy in antiviral assays, but its stability and target selectivity are yet to be determined. An understanding of these properties is crucial for the future progression of the peptide for therapeutic end use. To evaluate its stability, the Hecate peptide was incubated in freshly prepared human blood serum at 37 °C for 20 min. Mass spectrometry was then employed to identify breakdown products (metabolites) (Supplementary Figure S1).
Serum stability. A total of 100 µL of a solution containing 1 mg/mL of Hecate peptide was incubated at 37 °C with 100 µL of fresh human serum for 20 min. Then, 200 µL of 96% ethanol solution in water was added to the mixture, which was centrifuged, and the supernatant was analysed by mass spectrometry as described below. Water was used as a negative control for samples without serum (Supplementary Figure S1).
Mass spectrometry. Compound solutions were analysed by mass spectrometry using a Bruker spectrometer in electrospray positive mode with direct injection. Spectra were analysed with the help of Spectra Analysis Software using the relationship between molecular weight (m) and charge (z) (m/z). Fragments of Hecate were identified, and the amino acid sequence was determined by m/z comparison.

Molecule	Water Solubility [1]	CC50 (50% cytotoxic concentration in VERO cells) (Vero cells [2])	maximum non-toxic concentration (Vero cells [2]; Vero cells, WST)	also measured
H3^+N-FALALKALKKALKKLKKALKKAL-CONH2	–	–	–	cleaved bond (fresh human serum): L-K, major, 20 min
CC(C)C[C@H](NC(=O)[C@H](C)NC(=O)[C@H](CCCCN)NC(=O)[C@H](CCCCN)NC(=O)[C@H](CC(C)C)NC(=O)[C@H](C)NC(=O)[C@H](CCCCN)NC(=O)[C@H](CCCCN)NC(=O)[C@H](CC(C)C)NC(=O)[C@H](CCCCN)NC(=O)[C@H](CCCCN)NC(=O)[C@H](CC(C)C)NC(=O)[C@H](C)NC(=O)[C@H](CCCCN)NC(=O)[C@H](CCCCN)NC(=O)[C@H](CC(C)C)NC(=O)[C@H](C)NC(=O)[C@H](CCCCN)NC(=O)[C@H](CC(C)C)NC(=O)[C@H](C)NC(=O)[C@H](CC(C)C)NC(=O)[C@H](C)NC(=O)[C@H](Cc1ccccc1)NC(=O)c1cc(O)c(O)c(O)c1)C(N)=O [GA-Hecate] (Galloyl-FALALKALKKALKKLKKALKKAL-NH2)	Soluble	>70.0 µM	40 µM	–
CC(C)C[C@H](NC(=O)[C@H](C)NC(=O)[C@H](CCCCN)NC(=O)[C@H](CCCCN)NC(=O)[C@H](CC(C)C)NC(=O)[C@H](C)NC(=O)[C@H](CCCCN)NC(=O)[C@H](CC(C)C)NC(=O)[C@H](C)NC(=O)[C@H](CC(C)C)NC(=O)[C@H](C)NC(=O)[C@H](Cc1ccccc1)NC(=O)c1cc(O)c(O)c(O)c1)C(=O)O [GA-Metabolite 7] (Galloyl-FALALKALKKAL-OH)	Soluble	>80.0 µM	–	cytotoxic effect (Vero cells [2]; Vero cells, WST, all tested concentrations 80-0.62 µM): did not show any cytotoxic effect
CC(C)C[C@H](NC(=O)[C@H](CCCCN)NC(=O)[C@H](CCCCN)NC(=O)[C@H](CC(C)C)NC(=O)[C@H](C)NC(=O)[C@H](CCCCN)NC(=O)[C@H](CCCCN)NC(=O)[C@H](CC(C)C)NC(=O)[C@H](C)NC(=O)[C@H](CCCCN)NC(=O)[C@H](CC(C)C)NC(=O)[C@H](C)NC(=O)[C@H](CC(C)C)NC(=O)[C@H](C)NC(=O)[C@H](Cc1ccccc1)NC(=O)c1cc(O)c(O)c(O)c1)C(=O)O [GA-Metabolite 5] (Galloyl-FALALKALKKALKKL-OH)	Soluble	>70.0 µM	40 µM	virucidal inhibition (ZIKV strain MP1751; 20 µM): 98.5%; virucidal inhibition (ZIKV strain MP1751; 40 µM): 98.5%; cell viability (Vero cells [3]): did not have any effect on cell viability or cell shape
CC(C)C[C@H](NC(=O)[C@H](C)NC(=O)[C@H](CCCCN)NC(=O)[C@H](CCCCN)NC(=O)[C@H](CC(C)C)NC(=O)[C@H](C)NC(=O)[C@H](CCCCN)NC(=O)[C@H](CCCCN)NC(=O)[C@H](CC(C)C)NC(=O)[C@H](CCCCN)NC(=O)[C@H](CCCCN)NC(=O)[C@H](CC(C)C)NC(=O)[C@H](C)NC(=O)[C@H](CCCCN)NC(=O)[C@H](CCCCN)NC(=O)[C@H](CC(C)C)NC(=O)[C@H](C)NC(=O)[C@H](CCCCN)NC(=O)[C@H](CC(C)C)NC(=O)[C@H](C)NC(=O)[C@H](CC(C)C)NC(=O)[C@H](C)NC(=O)[C@@H](N)Cc1ccccc1)C(N)=O [Hecate] (H-FALALKALKKALKKLKKALKKAL-NH2)	–	–	–	stability in human blood serum [4]: degraded in human blood serum into three major metabolites
CC(C)C[C@H](NC(=O)[C@H](C)NC(=O)[C@H](CCCCN)NC(=O)[C@H](CC(C)C)NC(=O)[C@H](C)NC(=O)[C@H](CC(C)C)NC(=O)[C@H](C)NC(=O)[C@H](Cc1ccccc1)NC(=O)c1cc(O)c(O)c(O)c1)C(=O)O [GA-Metabolite 6] (Galloyl-FALALKAL-OH)	Not soluble	–	–	–
